Source: the supplement of paper PMC7125110
± gives the standard error. For some assays here: Fewer inactive variants are shown than the library holds.

B1: glmS ribozyme (parent)
chain: AUAAAAGCGCCAGAACUACAGAAAUGUAGUUGACGAGGAGGAGGUUUAUCGAAUUUUCGGCGGAUGCCUCCAAA

What was measured:
Settings in all cases: with glucosamine-6-phosphate
glucosamine-6-phosphate [1] = variants of: B1; test: kcat; higher = faster cleavage; RNA array
Procedure, shortened: (§1)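 Barcoded ribozyme variants on sequenced MiSeq chips were transcribed in situ by E. coli RNA polymerase and followed at 37 °C through a hybridised Cy3 probe. Glucosamine-6-phosphate at 40 μM to 10 mM in HEPES/KCl/Mg(OAc)2 buffer was flowed in, and tiles were imaged over ~14 h. Signals were normalised to baseline and to non-cleaving reference variants, and per-tile medians were fit to one- or two-exponential decays to give kobs. Weighted Michaelis–Menten fits across concentrations gave kcat and KM.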

glucosamine-6-phosphate [2] = variants of: B1; test: self-cleavage kobs at 40 uM GlcN6P; higher = faster cleavage; RNA array
Procedure, shortened: as §1

glucosamine-6-phosphate [3] = variants of: B1; test: self-cleavage kobs at 640 uM GlcN6P; higher = faster cleavage; RNA array
Procedure, shortened: as §1

glucosamine-6-phosphate [4] = variants of: B1; test: self-cleavage kobs at 10000 uM GlcN6P; higher = faster cleavage; RNA array
Procedure, shortened: as §1

glucosamine-6-phosphate [5] = variants of: B1; test: KM; higher = weaker cofactor use; RNA array
Procedure, shortened: as §1

glucosamine-6-phosphate [6] = variants of: B1; test: self-cleavage kobs at 2500 uM GlcN6P; higher = faster cleavage; RNA array
Procedure, shortened: as §1

glucosamine-6-phosphate [7] = variants of: B1; test: self-cleavage kobs at 160 uM GlcN6P; higher = faster cleavage; RNA array
Procedure, shortened: as §1

Variant | kcat (glucosamine-6-phosphate [1]) [s⁻¹] | self-cleavage kobs at 40 uM GlcN6P (glucosamine-6-phosphate [2]) [s⁻¹] | self-cleavage kobs at 640 uM GlcN6P (glucosamine-6-phosphate [3]) [s⁻¹] | self-cleavage kobs at 10000 uM GlcN6P (glucosamine-6-phosphate [4]) [s⁻¹] | KM (glucosamine-6-phosphate [5]) [µM] | self-cleavage kobs at 2500 uM GlcN6P (glucosamine-6-phosphate [6]) [s⁻¹] | self-cleavage kobs at 160 uM GlcN6P (glucosamine-6-phosphate [7]) [s⁻¹]
A14C G60A | < 1e-05 | < 1e-05 | < 1e-05 | – | – | – | –
G7C G38C | < 1e-05 | – | – | < 1e-05 | – | – | –
G44C U56A | 7.55e-05 ± 7.5e-06 | – | – | 5.85e-05 ± 6.8e-06 | 2860 ± 1100 | 3.9e-05 ± 1.4e-05 | –
A15U G37C C70G | 2.75e-05 ± 1.1e-05 | – | – | – | – | – | –
A12U G60U | 1.13e-05 ± 1.6e-06 | < 1e-05 | – | < 1e-05 | – | – | < 1e-05
U56A C58G | 0.000188 ± 1.8e-05 | – | 4.15e-05 ± 9.1e-06 | 0.000151 ± 1.7e-05 | 1930 ± 470 | 0.000121 ± 1.6e-05 | –
A14G A33U | 0.000136 ± 9.7e-06 | < 1e-05 | – | 7.29e-05 ± 7e-06 | 8710 ± 1300 | 3.08e-05 ± 1e-05 | –
U65G C68A | 6.34e-05 ± 1e-06 | – | – | 6.04e-05 ± 9.2e-06 | 501 ± 50 | 5.3e-05 ± 1.2e-05 | –
C61A A64G | < 1e-05 | < 1e-05 | – | – | – | – | –
A6U U54C | 0.000261 ± 4.2e-05 | – | 5.25e-05 ± 1.2e-05 | 0.000195 ± 4.6e-05 | 2260 ± 670 | 0.000165 ± 3.3e-05 | –
U47G C68A | 6.42e-05 ± 2.2e-05 | – | 0.000121 ± 2.4e-05 | 3.58e-05 ± 1.2e-05 | – | 9.07e-05 ± 1.6e-05 | 4.97e-05 ± 2e-05
G62A U69A | 3.46e-05 ± 8.1e-06 | – | – | – | – | – | –
G7A G37C U47A | 1.02e-05 ± 2.4e-06 | – | – | – | – | – | < 1e-05
A12C A42U | 0.000217 ± 1.2e-05 | – | 6.67e-05 ± 1.1e-05 | 0.000192 ± 1.2e-05 | 1230 ± 230 | 0.00016 ± 2.1e-05 | 3.19e-05 ± 1e-05
G29U G60A | < 1e-05 | < 1e-05 | < 1e-05 | < 1e-05 | – | – | < 1e-05
A6U A14G | 0.000657 ± 7.8e-05 | – | 0.000135 ± 2.3e-05 | 0.000513 ± 8.4e-05 | 2280 ± 480 | 0.000414 ± 8.3e-05 | 4.93e-05 ± 2.3e-05
U30C G37C C70U | 1.63e-05 ± 2e-06 | – | – | – | – | – | –
A14U G38A | < 1e-05 | – | – | < 1e-05 | – | – | –
G38C C67A | < 1e-05 | < 1e-05 | – | – | – | – | < 1e-05

Variant | kcat (glucosamine-6-phosphate [1]) [s⁻¹] | self-cleavage kobs at 40 uM GlcN6P (glucosamine-6-phosphate [2]) [s⁻¹] | self-cleavage kobs at 640 uM GlcN6P (glucosamine-6-phosphate [3]) [s⁻¹] | self-cleavage kobs at 10000 uM GlcN6P (glucosamine-6-phosphate [4]) [s⁻¹] | KM (glucosamine-6-phosphate [5]) [µM] | self-cleavage kobs at 2500 uM GlcN6P (glucosamine-6-phosphate [6]) [s⁻¹] | self-cleavage kobs at 160 uM GlcN6P (glucosamine-6-phosphate [7]) [s⁻¹]
U49G C58A | 3.25e-05 ± 8.4e-06 | < 1e-05 | – | – | 6150 ± 2700 | – | –
G29A G63C | < 1e-05 | < 1e-05 | – | < 1e-05 | – | < 1e-05 | –
U30C G40A | 9.74e-05 ± 1.5e-05 | < 1e-05 | – | 7.27e-05 ± 1.2e-05 | 3260 ± 1400 | 4.56e-05 ± 1.3e-05 | –
A12U A42G | 0.0985 ± 0.045 | 0.00296 ± 0.00037 | 0.0249 ± 0.006 | 0.116 ± 0.044 | – | – | 0.00676 ± 0.0033
G32A U49A | < 1e-05 | – | – | – | – | – | –
G29A G41C | 3.14e-05 ± 5.6e-06 | – | – | – | – | 2.97e-05 ± 1.2e-05 | –
G29U A39C | 0.00147 ± 0.00028 | 2.91e-05 ± 9.8e-06 | 0.000457 ± 5.8e-05 | 0.00118 ± 0.00014 | 2170 ± 670 | 0.000781 ± 0.0001 | 8.26e-05 ± 1.4e-05
C16U U30C | 7.72e-05 ± 8.6e-06 | < 1e-05 | 6.63e-05 ± 2.2e-05 | 8.45e-05 ± 9.1e-06 | – | 5.88e-05 ± 8.5e-06 | 3.52e-05 ± 1.7e-05
C16U U30A | 0.003 ± 0.00083 | 7.15e-05 ± 7.9e-06 | 0.000648 ± 0.00011 | 0.00242 ± 0.00027 | 2310 ± 910 | 0.00171 ± 0.00029 | 0.000131 ± 2.6e-05
G13C G66A | 6.45e-05 ± 6.3e-06 | – | – | 5.46e-05 ± 1.2e-05 | 1630 ± 600 | 4.1e-05 ± 1.2e-05 | –
A14U U31G A39C | 0.000999 ± 0.00027 | – | 0.000117 ± 2.6e-05 | 0.000701 ± 0.00017 | 4360 ± 1700 | 0.000373 ± 9.9e-05 | 5.41e-05 ± 2e-05
C11G G32A U69G | 3.08e-05 ± 7e-06 | – | – | – | – | – | –
G41C A42G | 0.00017 ± 1e-05 | – | 6.25e-05 ± 1e-05 | 0.000158 ± 1.9e-05 | 1210 ± 190 | 0.000107 ± 1.5e-05 | –
G66A C67U | 0.00255 ± 0.00091 | 0.000173 ± 2.6e-05 | 0.00134 ± 0.0002 | 0.00498 ± 0.00098 | – | 0.0016 ± 0.0003 | 0.000398 ± 6.5e-05
U31G G41U | 0.000641 ± 0.00019 | – | 0.000154 ± 6.3e-05 | 0.000505 ± 0.0001 | – | 0.000806 ± 0.00017 | 6.71e-05 ± 1.8e-05
C58A C70A | 4.48e-05 ± 1.6e-05 | – | 5.32e-05 ± 1.4e-05 | – | – | 6.58e-05 ± 1.4e-05 | 3.09e-05 ± 1.1e-05
A33C C58U | < 1e-05 | – | – | < 1e-05 | – | – | < 1e-05
A6U G32A | < 1e-05 | < 1e-05 | – | – | – | – | < 1e-05
